Test results published in patent publication US20240317834A1, “COMPOSITIONS AND METHODS FOR NEUROLOGICAL DISEASES” (CODA BIOTHERAPEUTICS, INC., priority 2020, published 2024).

Legend:
[1] = tested on: Lenti-X 293T cells; assay: YFP fluorescence quenching anion reporter plate reader assay of engineered receptors stimulated with acetylcholine or a non-native ligand; assay type: cell-based
Summary of the method: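 YFP quench was followed for about 1 min 43 s after ligand delivered in iodide-based ECS, pH 7.2. Values are end-of-read fluorescence (last 10 s) divided by the pre-ligand baseline (15 s). Cells were LX293T, transfected with receptor DNA a day before the assay.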

[2] = tested on: rat DRG neurons; assay: Whole cell manual patch clamp electrophysiology, ligand-induced currents and EC50 in rat DRG neurons; assay type: cell-based
Protocol: Using whole cell manual patch clamp electrophysiology in HEK293 cells, rat DRG neurons and rat hippocampal neurons, the EC50 of the various engineered receptors disclosed herein to Ach and non-native ligands was measured using the Hill equation with peak current measurements from escalating doses of ligand. The rheobase shift was also measured in rat DRG neurons, which reflects the efficacy of the receptors. To calculate the rheobase, first, the amount of current that can produce an action potential was determined. Then the ligand was added, followed by a step wise increase in the current injected up to 700 pA.
For manual patch clamp experiments, Cells plated on coverslips were visualized at 10× and 40× on an inverted fluorescence microscope (Olympus). Recordings were made with an Axopatch 200B amplifier and Digidata 1550B (Molecular Devices) at RT using 3-6 MOhm glass patch electrodes (Sutter, BF150-86-10). Unless otherwise stated, recordings were made in extracellular solution (ECS) containing: 140 mM sodium chloride, 4 mM potassium chloride, 1 mM magnesium chloride, 2 mM calcium chloride, 10 mM HEPES, and 10 mM D-(+)-glucose (pH=7.3 with sodium hydroxide, osmolarity=305−315 mOsm). An 8-line reservoir (AutoMate Scientific) in combination with an 8-channel zero-dead-volume perfusion pencil (AutoMate Scientific) was used for perfusion. Data was acquired using pClamp software (Molecular Devices). Traces were either analyzed in Clampfit (Molecular Devices) or using custom Python code. Plotting and statistics were performed in GraphPad Prism.
For dose-response, ligand-induced currents were recorded in voltage clamp mode. For HEK cell experiments, recordings took place in the normal ECS with a cesium-based internal solution containing: 140 mM cesium chloride, 5 mM potassium fluoride, 2 mM Calcium chloride, 2 mM magnesium chloride, 10 mM HEPES, and 10 mM EGTA (pH=7.2 with cesium hydroxide, osmolarity=290-295 mOsm). […]

B1: CODA806: engineered chimeric LGIC receptor, Y115D, L131Q in SEQ ID NO: 33 (protein)
chain: MRCSPGGVWLALAASLLHVSLQGEFQRKLYKELVKNYNPLERPVANDSQPLTVYFSLSLLQIMDVDEKNQVLTTNIWLQMSWTDHYLQWNVSEYPGVKTVRFPDGQIWKPDILLDNSADERFDATFHTNVQVNSSGHCQYLPPGIFKSSCPMDLKNFPMDVQTCKLKFGSWSYGGWSLDLQMQEADISGYIPNGEWDLVGIPGKRSERFYECCKEPYPDVTFTVTMRRRMGYYLIQMYIPSLLIVILSWISFWINMDAAPARVGLGITTVLTMTTQSSGSRASLPKVSYVKAIDIWMAVCLLFVFSALLEYAAVNFVSRQHKELLRFRRKRRHHKSPMLNLFQEDEAGEGRFNFSAYGMGPACLQAKDGISVKGANNSNTTNPPPAPSKSPEEMRKLFIQRAKKIDKISRIGFPMAFLIFNMFYWIIYKIVRREDVHNQ
modifications: synthetic sequence of chimeric LGIC
YFP fluorescence quenching using CNL001 ([1]; 1 nM CNL001, first column): 6.587% | YFP fluorescence quenching using CNL001 ([1]; 1 nM CNL001, second column): −5.179% | YFP fluorescence quenching using TC-5619/Bradanicline ([1]; 1 nM brd): 0.92% | YFP fluorescence quenching using TC-5619/Bradanicline ([1]; 3 nM brd): −4.65% | YFP fluorescence quenching using CNL001 ([1]; 10 nM CNL001, first column): −2.366% | YFP fluorescence quenching using CNL001 ([1]; 10 nM CNL001, second column): −1.272% | YFP fluorescence quenching using TC-5619/Bradanicline ([1]; 10 nM brd): 0.38% | YFP fluorescence quenching using TC-5619/Bradanicline ([1]; 30 nM brd): −8.96% | YFP fluorescence quenching using Facinicline ([1]; 30 nM fac): 41.32 | YFP fluorescence quenching using CNL001 ([1]; 50 nM CNL001, first column): 2.763% | YFP fluorescence quenching using CNL001 ([1]; 50 nM CNL001, second column): 1.995% | YFP fluorescence quenching using ABT-126 ([1]; 50 nM abt): −1.81% | YFP fluorescence quenching using CNL001 ([1]; 100 nM CNL001, first column): 3.091% | YFP fluorescence quenching using CNL001 ([1]; 100 nM CNL001, second column): 1.45% | YFP fluorescence quenching using CNL002 ([1]; 100 nM CNL002): −10.03% | YFP fluorescence quenching using ABT-126 ([1]; 100 nM abt): −2.61% | YFP fluorescence quenching using AZD-0328 ([1]; 100 nM azd0328): 12.15% | YFP fluorescence quenching using TC-5619/Bradanicline ([1]; 100 nM brd): 12.18% | YFP fluorescence quenching using Facinicline ([1]; 100 nM fac): 59.51 | YFP fluorescence quenching using ABT-126 ([1]; 300 nM abt): −3.78% | YFP fluorescence quenching using AZD-0328 ([1]; 300 nM azd0328): 30.92% | YFP fluorescence quenching using TC-5619/Bradanicline ([1]; 300 nM brd): −0.3% | YFP fluorescence quenching using Facinicline ([1]; 300 nM fac): 74.86 | YFP fluorescence quenching using CNL001 ([1]; 1 uM CNL001, first column): 7.331% | YFP fluorescence quenching using CNL001 ([1]; 1 uM CNL001, second column): 9.103% | YFP fluorescence quenching using CNL002 ([1]; 1 uM CNL002): −3.33% | YFP fluorescence quenching using ABT-126 ([1]; 1 uM abt): −2.6% | YFP fluorescence quenching using TC-5619/Bradanicline ([1]; 1 uM brd): 45.47% | YFP fluorescence quenching using TC-6987 ([1]; 1 uM tc6987): 38.83 | YFP fluorescence quenching using Facinicline ([1]; 10 uM fac): 78.53 | YFP fluorescence quenching using TC-6987 ([1]; 10 uM tc6987): 31.59 | YFP fluorescence quenching using CNL002 ([1]; 30 uM CNL002): 6.96% | YFP fluorescence quenching using AZD-0328 ([1]; 30 uM azd0328): 68.65% | YFP fluorescence quenching using Facinicline ([1]; 30 uM fac): 84.45 | YFP fluorescence quenching using TC-6987 ([1]; 500 uM tc6987): 29.83 | percent quench of YFP fluorescence, 10 uM ach ([1]; acetylcholine 10 uM): 9.47% | percent quench of YFP fluorescence, 100 uM ach ([1]; acetylcholine 100 uM): 6.12% | percent quench of YFP fluorescence, 1 mM ach ([1]; acetylcholine 1 mM): −1.56% | percent quench of YFP fluorescence, 3 mM ach ([1]; acetylcholine 3 mM): 17.57% | chloride current on application of RG-3487 (SA-2) ([2]; cultured adult rat DRG neurons expressing the receptor, not observed in non-transduced cells): generated chloride current in a dose dependent manner | sensitivity to RG-3487 compared with wildtype nAchRa7 receptor ([2]; cultured rat DRG sensory neurons): way more sensitive | sensitivity to acetylcholine ([2]; cultured rat DRG sensory neurons, compared with wildtype nAchRa7 receptor): essentially insensitive
